Patent US20260240958A1, “REPRESSOR FUSION PROTEIN SYSTEMS” (Scribe Therapeutics Inc., priority 2023, published 2026)

B1: DOMAIN_26749: repressor domain, Ophiophagus hannah, SEQ ID NO 135 (protein)
chain: STPVTFEDVVVYFTAAEWVHLTNWQRDFYQAVMMETYELVASVAGDGVPMAEDEEGGVERPVWQYIPRGKRRRKTPQPRAD
modifications: Ophiophagus hannah
B2: scaffold 316: chimeric gRNA scaffold: scaffold 235 with extended stem loop of scaffold 174; SEQ ID NO 1746 (nucleic acid)
guide: ACUGGCGCUUCUAUCUGAUUACUCUGAGCGCCAUCACCAGCGACUAUGUCGUAGUGGGUAAAGCUCCCUCUUCGGAGGGAGCAUCAGAG
modifications: listed as RNA, further chemistry not given here

Assays:
[1] = test system: B2M locus; experiment: B2M repression by HLA immunostaining and flow cytometry in HEK293T cells transfected with LTRP:gRNA plasmids
[2] = test system: 6.7/6.8 target dsDNA; experiment: In vitro cleavage rate (kcleave) of CasX 491 RNPs with gRNA variants on labeled dsDNA target; type: biochemical; settings: CasX 491 RNP, v1 gRNA, compared with scaffold 174
Experimental: (§1) Double-stranded DNA (dsDNA) targets were formed by mixing the oligos in a 1:1 ratio in 1× cleavage buffer (20 mM Tris HCl pH 7.5, 150 mM NaCl, 1 mM TCEP, […], 10 mM MgCl2), following by heating to 95° C. for 10 minutes, and then allowing the solution to cool to room temperature. CasX ribonucleoproteins (RNPs) were reconstituted with CasX 491 and the indicated gRNAs at a final concentration of 1 μM with 1.2-fold excess of the indicated gRNA in 1× cleavage buffer. RNPs were allowed to form at 37° C. for 10 minutes.
The effects of various structural and chemical modifications to the gRNA scaffold on the cleavage rate of CasX 491 RNPs were determined. Cleavage reactions were prepared with final RNP concentrations of 200 nM and final target concentrations of 10 nM, and reactions were carried out at 16° C. and initiated by the addition of the labeled target DNA substrate (Table 46). Aliquots of reactions were taken at 0.25, 0.5, 1, 2, 5, and 10 minutes and quenched by adding an equal volume of 95% formamide with 20 mM EDTA. Samples were denatured at 95° C. for 10 minutes and resolved on a 10% urea-PAGE gel. Gels were imaged on a Typhoon™ laser-scanner platform and quantified using ImageQuant™ TL 8.2 image analysis software (Cytiva™). The apparent first-order rate constant of non-target strand cleavage (kcieave-) was determined for each CasX:gRNA combination.

[3] = test system: 6.7/6.8 target dsDNA; experiment: Competent (active) fraction of CasX 491 RNPs formed by each gRNA, equimolar cleavage assay; type: biochemical; settings: CasX 491 RNP, v1 gRNA, spacer 6.7 or 6.8
Experimental: as §1
To determine the competent fraction formed by each gRNA, cleavage reactions were prepared with final RNP concentrations of 100 nM and final target concentrations of 100 nM. Reactions were carried out at 37° C. and initiated by the addition of the labeled target substrate (Table 46). Aliquots were taken at 0.5, 1, 2, 5, 10, and 30 minutes and quenched by adding an equal volume of 95% formamide with 25 mM EDTA. Samples were denatured by heating at 95° C. for 10 minutes and resolved on a 10% urea-PAGE gel. Gels were imaged and quantified as above. […] The plateau of each fit was determined and reported as the active fraction for each RNP in Table 49.

[4] = test system: PCSK9 locus; experiment: Editing (indel rate by NGS) at the PCSK9 locus in HepG2 cells lipofected with CasX 491 mRNA and gRNA; type: cell-based, human; settings: CasX 491 mRNA, v1 gRNAs spacers 6.7 and 6.8, 28 hours
Experimental: (§2) Editing at the PCSK9 locus and consequential effects on secreted PCSK9 levels were assessed for conditions using CasX 491 mRNA co-delivered with a PCSK9-targeting gRNA with scaffold variant 174 compared to conditions where a PCSK9-targeting gRNA with scaffold variant 316 was used. 100 ng of in vitro transcribed mRNA coding for CasX 491 with a P2A and mScarlet fluorescent protein was transfected into HepG2 cells with version 1 (v1) of gRNAs 174-6.7, 174-6.8, 316-6.7, and 316-6.8 (see Table 45) using lipofectamine. After a media change, the following were harvested at 28 hours post-transfection: 1) transfected cells were harvested for editing assessment at the PCSK9 locus by NGS (next generation sequencing); and 2) media supernatant was harvested to measure secreted PCSK9 protein levels by ELISA. For editing analysis by NGS, amplicons were amplified from 200 ng of extracted gDNA with a set of primers targeting the PCSK9 locus and processed as described earlier in Example 1. Secreted PCSK9 levels in the media supernatant were also analyzed using a fluorescence resonance energy transfer-based immunoassay from CISBio following the manufacturer's instructions. […]
(§3) V1 through v6 variants of chemically-modified PCSK9-targeting gRNAs (Table 45) were assessed for their effects on editing potency and consequential effects on secreted PCSK9 levels in vitro. […]

[5] = test system: PCSK9 locus; experiment: Secreted PCSK9 levels in media of HepG2 cells lipofected with CasX 491 mRNA and gRNA; type: cell-based, human; settings: CasX 491 mRNA, v1 gRNAs spacers 6.7 and 6.8, compared with scaffold 174
Experimental: as §2, §3

[6] = test system: B2M locus; experiment: B2M knockout (loss of HLA surface presentation, flow cytometry) in HepG2 cells with CasX 491 mRNA and B2M-targeting gRNA; type: cell-based, human; settings: LNPs, CasX 491 mRNA, spacer 7.9 v1, each dose, compared with scaffold 174
Experimental: To compare the editing potency of version 0 (v0) and version 1 (v1) of B2M-targeting gRNAs, ~6E4 HepG2 hepatocytes were seeded per well of a 96-well plate. 24 hours later, seeded cells were co-transfected using lipofectamine with 100 ng of in vitro transcribed mRNA coding for CasX 491 and different doses (1, 5, or 50 ng) of either v0 or v1 of the B2M-targeting gRNA containing scaffold variant 174 and spacer 7.37 (see Table 45).
(§4) ~50,000 HepG2 cells, cultured in DMEM/F-12 media containing 10% FBS and 1% PenStrep, were seeded per well in a 96-well plate. The next day, seeded cells were treated with varying concentrations of LNPs, which were prepared in six 2-fold serial dilutions starting at 250 ng. These LNPs were formulated to encapsulate CasX 491 mRNA and a B2M-targeting gRNA incorporating either scaffold variant 174 or 316 with spacer 7.9 (v1; see Table 45). Media was changed 24 hours after LNP treatment, and cells were cultured for six additional days prior to harvesting for gDNA extraction for editing assessment at the B2M locus by NGS and B2M protein expression analysis via HLA immunostaining, followed by flow cytometry using the Attune NxT flow cytometer. Briefly, for editing assessment, amplicons were amplified from 200 ng of extracted gDNA with primers targeting the human B2M locus and processed as described in Example 1.

[7] = test system: human B2M locus; experiment: Indel rate by NGS at the human B2M locus in HepG2 cells treated with LNPs (CasX 491 mRNA and gRNA); type: cell-based; settings: CasX 491 mRNA
Experimental: as §4

Molecule	B2M repression as second repressor domain in LTRP6 configuration ([1]; 4 days post-transfection)	B2M repression (HLA-negative cells) ([1]; gRNA scaffold 174 spacer 7.165, LTRP6 = ZIM3 first, named domain second repressor domain, day not stated in text (Tables 16-18, days 4-13))	cleavage rate ([2]; spacer 6.7)	cleavage rate ([2]; spacer 6.8)	active fraction higher than for scaffold 174 [3]	increase in editing rate at the PCSK9 locus over scaffold 174 [4]	reduction of PCSK9 secretion [5]	editing potency at the B2M locus (loss of HLA surface presentation) [6]	editing potency at the B2M locus (indel rate by NGS) ([7]; spacer 7.9 v1, each dose, compared with scaffold 174)	editing level at the B2M locus compared with scaffold 174 ([7]; spacer 7.9 v1, highest dose of 250 ng)
B1	highest level of B2M repression at 4 days post-transfection	~ 83.800%								
B2			marginally faster cleavage	nearly twice as quickly	25-30%	~ 10 percentage point	more effective reduction of PCSK9 secretion	higher editing potency at the B2M locus	higher editing potency at the B2M locus	nearly two-fold higher
